Assay results: patent publication US20260242478A1 (published 2026)
Where no end group is shown, it is not given here.

What was measured:
[1] = target: T1, Anti-CD28 Fab (SEQ ID NOs: 696, 697); experiment: phage binding ELISA on captured anti-CD28 Fab, wells pre-incubated with CD28 antigen as competitor;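 note: crude clonal phage supernatants added to wells preloaded with CD28 antigen, bound phage read by HRP-conjugated anti-M13 antibody, control wells got blocking buffer alone without CD28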
T1 construct: In the phage ELISA the Fab was biotinylated and captured on neutravidin coated plates
T1 sequence (VH, as listed by the source, chain 1 of 2): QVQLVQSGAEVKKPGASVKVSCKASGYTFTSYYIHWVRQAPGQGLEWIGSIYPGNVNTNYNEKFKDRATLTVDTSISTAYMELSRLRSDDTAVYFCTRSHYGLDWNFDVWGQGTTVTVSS
T1 sequence (VL, as listed by the source, chain 2 of 2): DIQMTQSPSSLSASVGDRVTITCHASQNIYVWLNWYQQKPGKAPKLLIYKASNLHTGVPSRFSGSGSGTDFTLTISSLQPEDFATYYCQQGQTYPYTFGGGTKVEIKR
Description: (§1) After panning, phage infected bacteria were plated out and colonies picked into 96 well blocks. Clonal phage was then amplified and separated from bacterial cells via centrifugation.
(§2) Clonal phage were harvested as crude supematants and screened via standard ELISAs. […] Prior to the addition of clonal phage, wells were incubated with blocking buffer and CD28 antigen or blocking buffer alone. Without washing or aspirating, clonal phage supematants were then added to the wells and incubated for a short time. Wells were then washed followed by detection of bound phage using a horse radish conjugated anti-M13 antibody. Clonal phage of interest were then sent for sequence analysis.

[2] = target: T1, Anti-CD28 Fab (SEQ ID NOs: 696, 697); experiment: phage binding ELISA, clonal phage on biotinylated anti-CD28 Fab captured on neutravidin plates, anti-M13 HRP detection
Description: as §1, §2

[3] = target: T2, Anti-CD28 Fab (SEQ ID NOs: 696, 697); experiment: phage binding ELISA on plate-bound anti-CD28 Fab, wells pre-incubated with CD28 antigen as competitor
T2 construct: Biotinylated and captured on neutravidin coated plates in the phage ELISA
T2 sequence (VH, as listed by the source, chain 1 of 2): as the sequence (VH, as listed by the source, chain 1 of 2) above
T2 sequence (VL, as listed by the source, chain 2 of 2): as the sequence (VL, as listed by the source, chain 2 of 2) above
Description: as §1, §2

[4] = target: T2, Anti-CD28 Fab (SEQ ID NOs: 696, 697); experiment: phage binding ELISA, clonal phage on biotinylated anti-CD28 Fab captured on neutravidin plates;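 note: crude clonal phage supernatants added to wells pretreated with CD28 antigen or blocking buffer only, bound phage detected by HRP-linked anti-M13 antibody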
Description: as §1, §2

[5] = target: T3, Anti-CD28 Fab (SEQ ID NOs: 696, 697); experiment: phage binding ELISA on Fab coated plate; wells pre-incubated with CD28 antigen as competitor
T3 construct: In the phage ELISA the Fab was biotinylated and captured on neutravidin coated plates
T3 sequence (VH, as listed by the source, chain 1 of 2): as the sequence (VH, as listed by the source, chain 1 of 2) above
T3 sequence (VL, as listed by the source, chain 2 of 2): as the sequence (VL, as listed by the source, chain 2 of 2) above
Description: as §1, §2

[6] = target: T3, Anti-CD28 Fab (SEQ ID NOs: 696, 697); experiment: phage binding ELISA; biotinylated Fab on neutravidin plate, clonal phage supernatant, anti-M13 HRP detection;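 note: phage from clones picked after panning, added to wells pre-incubated with blocking buffer with or without CD28 antigen, then briefly incubated and washed before detection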
Description: as §1, §2

[7] = target: T4, Anti-CD28 Fab (SEQ ID NOs: 696, 697); experiment: phage ELISA; biotinylated anti-CD28 Fab on neutravidin plate, bound phage detected with anti-M13-HRP
T4 construct: In the phage ELISA the Fab was biotinylated and captured on neutravidin coated plates
T4 sequence (VH, as listed by the source, chain 1 of 2): as the sequence (VH, as listed by the source, chain 1 of 2) above
T4 sequence (VL, as listed by the source, chain 2 of 2): as the sequence (VL, as listed by the source, chain 2 of 2) above
Description: as §1, §2

[8] = target: T4, Anti-CD28 Fab (SEQ ID NOs: 696, 697); experiment: phage ELISA on captured anti-CD28 Fab; competitor: CD28 antigen pre-incubated in the well
Description: as §1, §2

Binder	Anti-CD28 Fab signal in the presence of CD28 [1]	Anti-CD28 Fab (SEQ ID NOs: 696, 697) signal [2]	Anti-CD28 Fab signal in the presence of CD28 [3]	Anti-CD28 Fab (SEQ ID NOs: 696, 697) signal [4]	Anti-CD28 Fab signal in the presence of CD28 [5]	Anti-CD28 Fab (SEQ ID NOs: 696, 697) signal [6]	further results
YCDGHKPQYMEKCL (Peptide-87 library clone, tested as clonal phage supernatant) [Phage-844]	0.08	1.76	–	–	–	–	–
YCSGHSAEYMLKCL (Peptide-87 library clone, tested as clonal phage (peptide fused to pIII)) [Phage-861]	–	–	0.08	1.73	–	–	–
YCEGHSAEYMEKCL (Peptide-87 library clone, tested as clonal phage (peptide fused to pIII)) [Phage-860]	–	–	0.07	1.73	–	–	–
YCEGHLPEYMQKCL (Peptide-87 library clone, tested as clonal phage (peptide fused to pIII)) [Phage-854]	–	–	0.07	1.75	–	–	–
YCSGHLPEYMQKCL (Peptide-87 library clone, tested as clonal phage (peptide fused to pIII)) [Phage-853]	–	–	0.08	1.75	–	–	–
YCEGHLPDYMQKCL (Peptide-87 library clone, tested as clonal phage (peptide fused to pIII)) [Phage-862]	–	–	0.07	1.73	–	–	–
YCDGHYPEYMSKCL (Peptide-87 library clone, tested as clonal phage (peptide fused to pIII)) [Phage-856]	–	–	0.06	1.75	–	–	–
YCEGHLQTYMAKCL (Peptide-87 library clone, tested as clonal phage (peptide fused to pIII)) [Phage-864]	–	–	0.07	1.73	–	–	–
YCDGHTQAYIQKCL (not shown: pIII coat protein of the bacteriophage to which the peptide is fused) [Phage-871]	–	–	–	–	0.06	1.73	–
YCDGHSLQYMDKCL (Peptide-87 library clone, tested as clonal phage (peptide fused to pIII)) [Phage-855]	–	–	0.06	1.75	–	–	–
YCHGHLQEYMAKCL (Peptide-87 library clone, tested as clonal phage supernatant) [Phage-848]	0.07	1.76	–	–	–	–	–
YCDGHIPEYLAKCL (cysteine pairing not given here; also: displayed on phage by fusion to pIII, pIII and linker sequence not given here, Peptide-87 library clone, tested as clonal phage supernatant) [Phage-841]	0.06	1.76	–	–	–	–	–
YCDGHAPVYMAKCL (Peptide-87 library clone, tested as clonal phage supernatant) [Phage-850]	0.06	1.75	–	–	–	–	–
YCDGHLQIYLWKCL (not shown: pIII coat protein of the bacteriophage to which the peptide is fused) [Phage-876]	–	–	–	–	0.07	1.72	–
YCDGHSQEYMLKCL (cysteine pairing not given here; also: displayed on phage by fusion to pIII, pIII and linker sequence not given here, Peptide-87 library clone, tested as clonal phage supernatant) [Phage-842]	0.05	1.76	–	–	–	–	–
YCSGHLPEYMGKCL (cysteine pairing not given here; also: fused to phage pIII coat protein (sequence and linker not given here), not shown: pIII coat protein of the bacteriophage to which the peptide is fused) [Phage-867]	–	–	–	–	0.1	1.73	–
YCEGHAIEYLAKCL (Peptide-87 library clone, tested as clonal phage (peptide fused to pIII)) [Phage-859]	–	–	0.07	1.74	–	–	–
YCDGHAEKYMQKCL (Peptide-87 library clone, tested as clonal phage (peptide fused to pIII)) [Phage-858]	–	–	0.06	1.74	–	–	–
YCDGHAEEYLWKCL (cysteine pairing not given here; also: fused to phage pIII coat protein (sequence and linker not given here), not shown: pIII coat protein of the bacteriophage to which the peptide is fused) [Phage-868]	–	–	–	–	0.06	1.73	–
YCDGHSGVYMWKCL (not shown: pIII coat protein of the bacteriophage to which the peptide is fused) [Phage-870]	–	–	–	–	0.08	1.73	–

Binder	Anti-CD28 Fab signal in the presence of CD28 [1]	Anti-CD28 Fab (SEQ ID NOs: 696, 697) signal [2]	Anti-CD28 Fab signal in the presence of CD28 [3]	Anti-CD28 Fab (SEQ ID NOs: 696, 697) signal [4]	Anti-CD28 Fab signal in the presence of CD28 [5]	Anti-CD28 Fab (SEQ ID NOs: 696, 697) signal [6]	further results
YCDGHVQEYMQKCL (Peptide-87 library clone, tested as clonal phage supernatant) [Phage-847]	0.07	1.76	–	–	–	–	–
YCEGHSAEYMLKCL (Peptide-87 library clone, tested as clonal phage supernatant) [Phage-851]	0.07	1.75	–	–	–	–	–
YCEGHLAQYMNKCL (Peptide-87 library clone, tested as clonal phage supernatant) [Phage-846]	0.07	1.76	–	–	–	–	–
YCDGHSPEYMNKCL (Peptide-87 library clone, tested as clonal phage supernatant) [Phage-849]	0.06	1.75	–	–	–	–	–
YCDGHAIQYIGKCL (not shown: pIII coat protein of the bacteriophage to which the peptide is fused) [Phage-872]	–	–	–	–	0.09	1.72	–
YCDGHASEYMAKCL (Peptide-87 library clone, tested as clonal phage (peptide fused to pIII)) [Phage-857]	–	–	0.09	1.75	–	–	–
YCAGHSAEYMAKCL (not shown: pIII coat protein of the bacteriophage to which the peptide is fused) [Phage-869]	–	–	–	–	0.07	1.73	–
YCAGHSQEHIQKCL (Peptide-87 library clone, tested as clonal phage (peptide fused to pIII)) [Phage-865]	–	–	0.09	1.73	–	–	–
YCDGHLPEYIFKCL (cysteine pairing not given here; also: fused to phage pIII coat protein (sequence and linker not given here), not shown: pIII coat protein of the bacteriophage to which the peptide is fused) [Phage-866]	–	–	–	–	0.09	1.73	–
YCDGHAAEFMMKCL (not shown: pIII coat protein of the bacteriophage to which the peptide is fused) [Phage-873]	–	–	–	–	0.06	1.72	–
YCDGHIGEYMVKCL (Peptide-87 library clone, tested as clonal phage supernatant) [Phage-845]	0.66	1.76	–	–	–	–	–
YCDGHLEEYMVKCM (Peptide-87 library clone, tested as clonal phage (peptide fused to pIII)) [Phage-863]	–	–	0.06	1.73	–	–	–
YCEGHSVQYMQKCL (not shown: pIII filament protein of the bacteriophage to which the peptide is fused) [Phage-879]	–	–	–	–	–	–	Anti-CD28 Fab signal (phage binding ELISA) [7]: 1.71; Anti-CD28 Fab signal in the presence of CD28 [8]: 0.06
YCQGHLPVYMEKCL (not shown: pIII coat protein of the bacteriophage to which the peptide is fused) [Phage-877]	–	–	–	–	0.06	1.72	–
YCEGHSEMYMKKCL (not shown: pIII coat protein of the bacteriophage to which the peptide is fused) [Phage-875]	–	–	–	–	0.07	1.72	–
YCDGHAAEYMDKCL (not shown: pIII coat protein of the bacteriophage to which the peptide is fused) [Phage-878]	–	–	–	–	0.07	1.72	–
YCDGHVEPYLSKCL (cysteine pairing not given here; also: displayed on phage by fusion to pIII, pIII and linker sequence not given here, Peptide-87 library clone, tested as clonal phage supernatant) [Phage-843]	0.1	1.76	–	–	–	–	–
YCDGHSPQYMQKCL (cysteine pairing not given here; also: displayed on phage by fusion to pIII, pIII and linker sequence not given here, Peptide-87 library clone, tested as clonal phage supernatant) [Phage-840]	0.07	1.76	–	–	–	–	–
YCDGHLSEYMAKCL (not shown: pIII coat protein of the bacteriophage to which the peptide is fused) [Phage-874]	–	–	–	–	0.08	1.72	–
YCDGHHIEYLAKCL (Peptide-87 library clone, tested as clonal phage supernatant) [Phage-852]	0.1	1.75	–	–	–	–	–
